For two molecules, cell aggregation index: HEK293T cells with LAR variant + mCherry mixed with HEK293T cells with NGL-3 (NGL-3-CFP, whole on cells, not the Fc fusion) + GFP; decrease against WT LAR and Kd results are on record in publication PMC12155224, “Rare missense variants of the leukocyte common antigen related receptor (LAR) display reduced activity in transcellular adhesion and synapse formation” (Research Square, 2025).

Assay [1] addresses LAR P381L, full length (human) (UniProt P10586).
Assay [2] concerns the target LAR P417L, full length (human) (UniProt P10586).
Assay [3] has as its target LAR V389M, full length (human) (UniProt P10586).
Assay [4] has as its target T1, NGL-3 ECD (extracellular domain of Netrin-G ligand 3, Fc cleaved off) (UniProt Q9NT99 36-576).
T1 construct: after cleavage LEVLFQ should remain at the C-terminus (surmised); source: ExpiCHO-S, purified (Protein A, Fc cleaved off with 3C protease, SEC); not shown: Fc, C-terminal, cleaved
T1 sequence (looked up): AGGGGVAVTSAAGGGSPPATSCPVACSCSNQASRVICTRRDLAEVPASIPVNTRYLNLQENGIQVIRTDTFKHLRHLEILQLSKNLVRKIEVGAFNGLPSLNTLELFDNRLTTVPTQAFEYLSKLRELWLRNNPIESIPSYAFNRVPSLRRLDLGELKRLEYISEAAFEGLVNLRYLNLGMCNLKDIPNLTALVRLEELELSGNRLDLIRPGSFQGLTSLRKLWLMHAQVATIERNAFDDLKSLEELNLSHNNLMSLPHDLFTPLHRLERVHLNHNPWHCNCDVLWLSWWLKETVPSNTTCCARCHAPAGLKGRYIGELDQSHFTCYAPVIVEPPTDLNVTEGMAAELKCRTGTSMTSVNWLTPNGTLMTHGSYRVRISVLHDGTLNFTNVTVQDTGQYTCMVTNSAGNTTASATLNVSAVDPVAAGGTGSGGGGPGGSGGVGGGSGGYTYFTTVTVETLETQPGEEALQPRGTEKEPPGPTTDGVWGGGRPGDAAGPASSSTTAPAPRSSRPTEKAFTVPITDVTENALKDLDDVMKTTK
Kind of assay: MST; His-tagged LAR FN1–4 labelled with RED-tris-NTA, 100 nM; NGL-3 in 1:1 dilution series; 25 mM HEPES pH 7.5, 150 mM NaCl, 0.005 % Tween20; 1 h at RT; Monolith NT.115, medium MST power; MST on time 2.5 s; 1:1 KD model. To be noted: both partners purified.

As for “NGL-3-Fc (soluble fusion of the NGL-3 extracellular domain with Fc) (from UniProt Q9NT99 36-576)”, the cell aggregation index: HEK293T cells with LAR variant + mCherry mixed with HEK293T cells with NGL-3 (NGL-3-CFP, whole on cells, not the Fc fusion) + GFP; decrease against WT LAR in assay [1], in assay [2] and in assay [3] was more than 50 % decrease throughout.

B1: LAR FN1–4 WT (recombinant fibronectin III domains 1–4 of human LAR) (domain or fragment)
chain: PKPPIDLVVTETTATSVTLTWDSGNSEPVTYYGIQYRAAGTEGPFQEVDGVATTRYSIGGLSPFSEYAFRVLAVNSIGRGPPSEAVRARTGEQAPSSPPRRVQARMLSASTMLVQWEPPEEPNGLVRGYRVYYTPDSRRPPNAWHKHNTDAGLLTTVGSLLPGITYSLRVLAFTAVGDGPPSPTIQVKTQQGVPAQPADFQAEVESDTRIQLSWLLPPQERIIMYELVYWAAEDEDQQHKVTFDPTSSYTLEDLKPDTLYRFQLAARSDMGVGVFTPTIEARTAQSTPSAPPQKVMCVSMGSTTVRVSWVPPPADSRNGVITQYSVAYEAVDGEDRGRHVVDGISREHSSWDLVGLEKWTEYRVWVRAHTDVGPGPESSPVLVRTDED
modifications: RED-tris-NTA 2nd generation dye on the His tag
notes: leukocyte common antigen related receptor (LAR, PTPRF), human, FN1–4 domains; TEV cleavage site between the His tag and the domains; also called WT LAR FN1–4; LAR FN1–4 domain; source: E. coli BL21(DE3), purified (HisTrap HP or Talon beads, SEC); not shown: His6, N-terminal, kept
For the molecule B1, the Kd (in general, a measure of binding affinity in units of concentration) in assay [4] worked out at 3.68 µM.
